In publication PMC4142084 (Molecular cell, 2014):
Where a chain is given by its changes, count along the chain named.

B1: purified recombinant FLAG-6PGD (6-phosphogluconate dehydrogenase) WT (enzyme, human)
chain: MAQADIALIGLAVMGQNLILNMNDHGFVVCAFNRTVSKVDDFLANEAKGTKVVGAQSLKEMVSKLKKPRRIILLVKAGQAVDDFIEKLVPLLDTGDIIIDGGNSEYRDTTRRCRDLKAKGILFVGSGVSGGEEGARYGPSLMPGGNKEAWPHIKTIFQGIAAKVGTGEPCCDWVGDEGAGHFVKMVHNGIEYGDMQLICEAYHLMKDVLGMAQDEMAQAFEDWNKTELDSFLIEITANILKFQDTDGKHLLPKIRDSAGQKGTGKWTAISALEYGVPVTLIGEAVFARCLSSLKDERIQASKKLKGPQKFQFDGDKKSFLEDIRKALYASKIISYAQGFMLLRQAATEFGWTLNYGGIALMWRGGCIIRSVFLGKIKDAFDRNPELQNLLLDDFFKSAVENCQDSWRRAVSTGVQAGIPMPCFTTALSFYDGYRHEMLPASLIQAQRDYFGAHTYELLAKPGQFIHTNWTGHGGTVSSSSYNA
modifications: background lysine acetylation; acetylation at K76 and K294 increased after incubation with lysates of NAM+TSA-treated H1299 cells
B2: purified recombinant FLAG-6PGD K76R (enzyme, human)
chain: B1 chain with K76R
modifications: acetylation at K294 increased after incubation with lysates of NAM+TSA-treated H1299 cells

Target: the molecule itself
Assay: cross-linking

| Protein | stoichiometry N |
| --- | --- |
| B1 | 2 |
| B2 | 2 |
